From the nanobody polyreactivity screen of Harvey et al. (2022)

Test: yeast display, Sf9 membrane polyspecificity reagent, FACS + sequencing; frameworks hold sequencing errors
In short: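 A synthetic nanobody library was expressed on Saccharomyces cerevisiae BJ5465 by galactose induction for 36–48 hours. The library was stained for 1 hour at 4 °C with 10% biotinylated, detergent-solubilized Sf9 membrane reagent and enriched with streptavidin microbeads before FACS. Low and high (top ~1%) gates were set on anti-HA fluorescence for expression and streptavidin fluorescence for reagent binding, and each polyreactivity label reflects the gate of origin.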

Sequence | polyreactivity (PSR sort gate)
QVQLVESGGGLVQAGGSLRLSCAASGRTFVSNAMGWYRQAPGKERELVAAISGSGGITYYADSVKGRFTISRDNAKNTVYLQMNSLKPEDTAVYYCNADSSGWFPFDYWGQGTQVTVSS | low polyreactivity
QVQLVETGGGIVQAGGSLSLSCAASGRIFSPYAMGWYRQAPGKERELVAAISYDDGITYYADSVKGRFTISRDNAKNTVYLQMISLKPEDTAVYYCAADSVTRPAGDYWGQGTQVTVSS | low polyreactivity
QVQLVESGGGLVQAGGSLRLSCAASGLTFVYYAMGWYRQAPGKERELVASISSTGRTYYADSVKGRFTISRDNAKNTVYLQMNSLKPEDTAVYFSAARSTYFKADYWGQGTQVTVSS | high polyreactivity
QVQLVESGGGLVQAGGSLRLSCPASVSIFYTYAMGLYRQAPGKEREFFASNTYRGSNTYYADSVKGRFTISRDNAKNTVYLQMNSLKPEDTAVYYCAAERYLYYPPYIYETSYVYWGQGSQVTVSS | low polyreactivity
QVQLVESGGGLVQAGGSLRLSCAASGRIFYRNAMGWYRQAPGKEREFVAAITFRSGGTYYADSVKGRFTISRDNAKNTVYLQMNSLKPEDTAVYYCATRYLGASRYGYWGQGTQVTVSS | high polyreactivity
QVQLVESGGGLVQAGGSLRLSSAASGRIFGTYAMGWYRQAPGKERELVAAITSGGRTYYADSVKGRFTISRDNAKNTVYLQMNSLKPEDNAVYYCARPSGYRKYYYWGQGTQVTVSS | high polyreactivity
QVQLVETGGGLVPAGGSLRLSCAASGSTFQRYAMGWYRQAPGKERELVAAITWSGGSTKYADSVKGRFTISRDNAKNTVYLQMNSMKPEDTAVYYCARTYGSSRWGQGTQVTVSS | low polyreactivity
QVQLVESAGGLVHAGGSLRLSCAASGFIFWYYAMGWDRQSPGKERELVASISRGGDSTYYADSVKGRFTISRDNAKNTVYVQMNSLKPVDTAVYYCNARGRYRKSERRAFDYWGQGTQVTVSS | high polyreactivity
QVQLVESGGRLVQAVGSLRLRCAAAGRTFPVYAMGWYRQAPGKERELVAAIRGRSVRKYYADSVKGRFTISRDYAKNTVYLQMNSLKPEDTAVYYCAAYYLNPGMDYWGQGTQVTVSS | high polyreactivity
QVQLLESGGGLVQAGGSLRLSCKARGSILGDRMSWYRQAPVKEHELVATIYDGGITYYADSMKGRFTISRDNAKNTVYLQMNRLRPEDTAVYYCGASFEGYRYHVYCGQGTQVTVSS | low polyreactivity
QVQLVESGGGLVQAGGSLRLSCAASGSIFLGYTMGWYRPAPGKERELVAAISTRGGSTYYADSVKGRFTISRDNAKNTVYLQMNSLKPEDTAVYYCKARSRGRASGYDYWGQGTQVTVSS | high polyreactivity
QVQLVESGGGLVQAGGSLRLSCAASGFTFYRNAMGWYRQAPGKERELVAAISWRGSSTYYADSVKGRFTISRDNAKNTVYLQMNSLKPEDTAVYYCATEYPYWYYYRMDYWGQGTQVTVSS | high polyreactivity
QVQLVESGGGLVQAGGSLRISCAASGNICSWYAMGWSRQAPGKERELVAAIRWSSGSTYYADSVKWRFTISRDNAKNTVYLQMNSMKPEDTAVYYCAAVIKGWGQGTQVTVSS | high polyreactivity
QVQLVESGGVLVQAGGSLRLSCAASGSIFRTNVMGWYSQAPGKEREMVASISSDSSTNYADSVKGRFTISRDNEKNTVYLQMNSLKPEDTAVYYCAKDPVVTEHYYWGQGTQVTVSS | low polyreactivity
QVQLVESGGGLVQAGGSLRLSCAASGRIFKHYAMGWSRQAPGKERELVAAITNGGRTNYADSVKGRFTISRDNAKNTVYLQMNSLKPADTAVYYGNSESSPPYSITKFDYWGQGTQVTVSS | low polyreactivity
QVQLVESGGGLVQAGGSLRLSCAASGRTFRYNAMGWYRQAPGKERELVAAINWNGGSTYYADSVKGRFTISRDNAKNTVYLQMNSLKPEDTAVYYCAAYPGHGVTYWDRYYYWGQGTQVTVSS | high polyreactivity
QVQLVESGGGLVQAGGSLRLSCAASGSTLHYNAMGWYRQAPGKERELVARISWSGGSTYYADSVKGRFTISRDTAKNTVYLQMNSLKPEDTAVYYCAAPRYGHYTWLYDYWGQGTQVTVSS | low polyreactivity
QDQLGESGGGLVQAGGSLRLSCAAAGSIFGTNAMGWYRQAPGKEREFVATISSRTGSTYYADSVKGRFTISRDNAKNRVYLQMNSLKPEDPAVYYCAAVRWYGKYDDWGQGTQVTVSS | low polyreactivity
QVQLVESGGGLVQAGGSLRLSCAASGITFYYYAMRWYRQAPGKERELVAAISRGGSTYYADSVKGRFTISCDNAKNTVYLQMNSLKPEDTAVYYCNAYTTGYLFGYWGQGTQVTVSS | high polyreactivity
QVQLVESGGGLVQAGGSLRLSCAASGRIFYRYAMGWYRQAPGKEREFVAAISGTGGSTYYADSVKGRFTISRDNAKNTVYLQMNSLKPEDTAVYYCAASVVSRPTYYAYYYWGQGTQVTVSS | high polyreactivity
QVQLVESGGGLVQAGGSLRLSCAASGSIAGNAMGWYRQAPGKERELVAAITFRGSGTYYADSVKGRFTISRDNAKNTVYLQMNSLKPEDTAVDYCNAYRRGLSVYGYWGQGTQVTVSS | high polyreactivity
QVQLVESGGGLVQAGGSLRLSCAASVITFYFNAMGWYRQAPGKERELVAVITSGGSTNYADSVKGRFTISRDNAKNTVNLQMNSLKPEDTAVYYCATDKSYSSWSAQYDYWGQGTQVTVSS | low polyreactivity

Sequence | polyreactivity (PSR sort gate)
QVQLGESGGGLVQAGGSLRLSCAASGSIFGGNAMGWYRQAPGKERELVAAISTSGSTTYYADSVKGRFTISRDNAKNTVYLQMNSLKPEDTAVYYCARRGGVRGYYGGRRSKMDYWGQGTQVTVSS | low polyreactivity
QVHIVESGGGLVQAGGSLRLSCAASGSNFTLYTMGWYRQAPGKERELVAAISTSGGRTYYADSVKGRFTISRDNAKNTVYLQMNSLKPEDTAVYYCNAGYWYYGQDDYWGQGTQVTVSS | high polyreactivity
QVQLVESGGGLVQAGGSLRLICAASGSTFAIYAMGWYRPAPGKERELVAAITGRSGSTYYADSVKGRFTISRDNAKNTVFLQMNSLKPEDTAVYYCAAQGGYRRTPYIHRDYWGQGTQVTVSS | high polyreactivity
QVQLVESGGGLVQAGGSLRLSCAASGSIFWNNAMGWSRQAPGKERELVAAISKSGTRTYYADSVKGRFTISRDNAKNTVYLQMNSLKPEDTAVYYCNALLRDSGTYAGDDYWGQGTQVTVSS | high polyreactivity
QVQLVESGGGLVQAGGSLRLSCAASGRIFRWNAMGWYRQAPGKERELVAAISWNGGRTYYADSVKGRFTISRDNAKNTVYLQMNSLKPEDTAVYYCAAPHSVPDLHSGDYWGQGSQVTVSS | low polyreactivity
QVQLVESGVGLVQAGGSLRLSCAASGFMFGGSAMGWKRQAPGKERELVAAITRSGGSTYYADSVKGRFTISRDNAKNTVYLQMNSLKPEDTAVYYCAAERQPYRTSSYNYWGQGTQVTVSS | high polyreactivity
QVQLVESGGGLVQAGGSLRLSCAASGSIFGSYAMGWYRQAPGKERELVAAISKSGGNTYYADSVKGRFTISRDNAKNTVYLQMNSLKPEDTAVYYCAAYGFYRWRGYDYWGQGTQVTVSS | high polyreactivity
QVQLVESGGGLVQAGGSLRLSCAASGITFHEYAMVWYRQAPGKERELVAAISASGGTTYYADSVKGRFTISRDNAKNTVYLQMNSLKPEDTAVYYCAALPLYITEYGYWGQGTQVTVSS | high polyreactivity
QVQLVESGGGLVQAGGSLRLSCAASGIIFYLYAMGWYRQAPGKERELVAAISGSGGNTYYADSVKGRFTISRDNAKNTVYLQMNSLKPEDTAVYYCAVAVFVWYAVIPYAEYDYWGQGTQVTVSS | high polyreactivity
QLQLVESGGALVQAGGSLRLSCAASGSTFTVNGMGWYRQAPGKERELVAAIDGGDGSTYYADSVKGRFTISRDNAKNTVYLQMNSLKPEDTAVYYCAADPPGFTQYGYWGQGTKVTVSS | low polyreactivity
QVQLVESGGGLVQAGGSLRLSCAASGFTFRGYAMGWYRQAPGKERELVAAISNGGGTNYADSVKGRFTISRDNAKNTVYLQMNSLKPEDTAVYYCNAPGYRAENPGFDYWGQGTQVTVSS | high polyreactivity
QVQLVESGGGLVQAGGSLRLSCAASGSTFGLNALGWYRQAPGKERELVAAISTSGGSTYYADSVKGRFTISRDNAKNTVFLQMNSLNPEDTAVYYCAADVVAGYDYSQYYYWGQGTQVTVSS | low polyreactivity
QVQLVESGGGLVQAGGSLRLSCAASGSTFWWYAMGWYRQAPGKERELVAAISYSGSSTYYADSVKGRFTISRDNAKNTVYLQMNSLKPEDTAVYYCAADIQYYYNFYPGDYWGQGTQVTVSS | low polyreactivity
QVQLVESGGGLVQAGGSLRLSCAASGSSVSYYAMGWYRQAPGKERELVAAISDNGDSTYYADSVKGRFTISRDNAKNTVYLQMNSLKPEDTAVYYCDKRYRSYGKSSKRRYYYWGQGTQVTVSS | low polyreactivity
QVQLVESGGGLVQAGGSLRLSCAASGRILTYYAMGWYRPAPGKERELVAAISWRAGSTYYADSVKGRFTISRDNAKNTVYLQMNSLKPEDTAVYYCAADLPYWYNRKPIFPYYYWGQGTQVTVSS | high polyreactivity
QFQLVESGGGLVQAGGSLRLSCAASGFIIKFYAMGLYRQAPGKERELVATITFSSGTTYYADSVKGRFTISRDTAKNTVYLQLNSLKPEDTAVYYCAAERGVDDSARNGDYDYWGQGTQVTVSS | low polyreactivity
QVQLVESGGGLVQAGGSLRLSCAASGSILPYYAMGWYRQAQGKERELLATITDGTDTYYADSVKGRFTISRDNAKNTVYLPMNSLKPEDTAVYYCNADGYVYYLHEDYWGQGTQVTVSS | low polyreactivity
QVQLVESGGGLVQAGGSLRLSCAASGSTFGRYAMGWYRQAPGKERELVAAISASGGSTYYADSVKGRFTISRDNAKNTVYLLMNSLKPEDTAVYYSAALIDVITGQYDYWGQGTQVTVSS | high polyreactivity
QVQLQESRGGLVQEGGSLRLSSAASGNISPPAHMGWYRPAPGKQRELVASIGNGRTTNYADSVKGRFTISRHNANNTVYLQMYSLKPDETAVYYCSAVRYEYNPYDYWGQGTQVTVSS | low polyreactivity
QVQLVESAGGFVQAGGSLRLSCAASGRIYQQNGLRWYRQAPGKERELVAGINSGVGTNYADSVKGRFTISRDNAKNTVYLQMNSLKPEDTAVFYCAKSQPSYSGDRDYWGQGTQVTVSS | low polyreactivity
QVQLVESGGGLVQAGGSLRLSCAASGLIFVGYAMGWSRQAPGKERELVAAITSGGYTKYADSVKGRFTISRDNAKYSVYLQMNSLKPEDTAVYFCAASGWRKWWSARNYYWGQGTQVTVSS | low polyreactivity
